Measured values from US9523084B2, “Phosphodeoxyribosyl transferase mutant enzymes and uses thereof” (Centre National De La Recherche Scientifique, priority 2012, dated 2016).

Experiments:
Assay type in all cases: biochemical
[1] = target: T1, Lactobacillus leichmannii nucleoside deoxyribosyltransferase (NDT, SEQ ID NO:1) variant PDTT2, R13 Q91 G92 T93 S123 (F13R/E91Q/D92G/V93T/N123S), SEQ ID NO:10 (Lactobacillus leichmannii, UniProt Q9R5V5, D92G/E91Q/F13R/N123S/V93T); assay: Kinetic parameters of PDT variants with deoxycytidine 5'-mono, -di and -triphosphate as donors and adenine as acceptor; details: adenine acceptor
T1 construct: made in house; host or cells: E. coli BLi5 (pET24a NDT plasmid)
T1 sequence (Q9R5V5 2-157 F13R/E91Q/D92G/V93T/N123S): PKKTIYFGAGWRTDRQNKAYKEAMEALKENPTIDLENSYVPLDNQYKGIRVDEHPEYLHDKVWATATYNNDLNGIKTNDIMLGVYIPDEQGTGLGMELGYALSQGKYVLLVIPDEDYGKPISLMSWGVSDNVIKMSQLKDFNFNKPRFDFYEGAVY
Description: (§1) The standard assay (“first protocol for enzyme assay”) for the different NDTs consisted of 5-15 μg of NDT in 50 mM MES buffer pH 6.0, dNxP (dNMP, or dNDP or dNTP) 3 mM and a base 1 mM in a total volume of 50 μL. Assays were incubated for 60 min at 37° C. The products of the reactions were analyzed each 7 min by Rapid resolution high performance liquid chromatography using a reverse-phase column (ZORBAX Eclipse XDB-C18 2.1*50 mm 1.8 μM) with a flow rate of 0.25 ml/min and a linear gradient of 1-12% CH3CN (2-25% CH3CN or 1-90% CH3CN) in 20 mM triethylammonium acetate, pH 7.5, buffer for 7 min. The low resolution mass spectra of the newly synthesized deoxyribonucleotides were obtained on an Agilent 1200 series LC/MS 6120 quadrupole system using an atmospheric electrospray ionization system.
(§2) This hypothesis was confirmed by monitoring the specific activity, in the presence of dCDP or dCTP as donor and adenine as acceptor (see table 2 above). The kinetic parameters were determined for the best variants with dCMP, dCDP and dCTP as substrates, at a concentration of A being fixed (see table 3 below).

[2] = target: T2, Lactobacillus leichmannii nucleoside deoxyribosyltransferase (NDT, SEQ ID NO:1) variant PDTT1, R13 G92 T93 S123 K157 (F13R/D92G/V93T/N123S/Y157K), SEQ ID NO:9 (Lactobacillus leichmannii, UniProt Q9R5V5, D92G/F13R/N123S/V93T/Y157K); assay: as above; details: adenine acceptor
T2 construct: homohexamer (108 kDa)
T2 sequence (Q9R5V5 1-157 F13R/D92G/V93T/N123S/Y157K): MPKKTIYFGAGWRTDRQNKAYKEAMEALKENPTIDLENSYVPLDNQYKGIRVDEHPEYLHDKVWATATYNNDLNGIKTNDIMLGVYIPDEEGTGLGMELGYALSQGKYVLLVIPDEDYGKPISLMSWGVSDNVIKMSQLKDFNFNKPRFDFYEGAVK
Description: as §1, §2

[3] = substrate: Nc1ccn([C@H]2C[C@H](O)[C@@H](COP(=O)(O)OP(=O)(O)OP(=O)(O)O)O2)c(=O)n1; assay: as above; details: other: PDTT2; deoxyribose triphosphate transferase; 37.0 °C
Description: as §1, §2

[4] = substrate: Nc1ccn([C@H]2C[C@H](O)[C@@H](COP(=O)(O)O)O2)c(=O)n1; assay: as above; details: 37.0 °C; for Km: adenine as acceptor, fixed
Description: as §1, §2

[5] = substrate: Nc1ncnc2c1ncn2[C@H]1C[C@H](O)[C@@H](COP(=O)(O)OP(=O)(O)OP(=O)(O)O)O1; assay: Spectrophotometric assay coupled to xanthine oxidase, dATP + C ⇄ dCTP + A; details: other: PDTT2, 1 mM cytosine, 50 mM MES pH6.0, 37° C., pH 6.0
Description: (§3) Further, the cinetic parameters of these mutant enzymes were analysed, using a specific spectrophotometric assay. Briefly, the assay consists in measuring the formation of the final product (2,8 dihydroxyadenine) of the reaction:
(§4) Briefly, the assay was performed using the coupling of two enzymes: the variant (PDTT2, PDTT4, PDTT5, PDTT6, or PDTT7) to be tested and xanthine oxidase (obtained from Roche). The reaction mixture contained varying concentrations of dATP, 1 mM cytosine in a 50 mM MES buffer pH6.0 at 37° C. The reaction was initiated by adding 30 units of the purified variant to be tested and xanthine oxidase (Roche). The released adenine was then oxidized in 2,8-dihydroxyadenine which absorbs at 301 nm. The formation (i.e. concentration) of 2,8 dihydroxyadenine was measured by spectrophotometry.

[6] = Spectrophotometric assay coupled to xanthine oxidase (2,8-dihydroxyadenine at 301 nm); details: dATP + C ⇄ dCTP + A; 1 mM cytosine, 50 mM MES pH6.0, 37° C.
Description: as §3, §4

[7] = Catalytic activity of PDTT2 to PDTT7, dATP formed (HPLC); details: dCTP + A ⇄ dATP + C; 2 mM dCTP, 1 mM Adenine, 37° C., MES 50 mM pH6.0
Description: In specific cases, an alternative protocol was used to perform the enzyme assay. In this second protocol, the dNxP (dNMP, or dNDP or dNTP) concentration was of only 2 mM, instead of 3 mM. All of the other conditions were identical to those of the first protocol.
The catalytic activity of the mutant enzymes PDTT2, PDTT3, PDTT3b, PDTT4, PDTT5, PDTT6, PDTT7 has been compared. Briefly, a sufficient amount of enzyme mutant necessary to obtain a linear reaction over a period of one hour at 37° C. has been mixed in 2 mM dCTP and 1 mM Adenine in a final volume of 50 μL of MES buffer 50 mM pH6.0. Assays were incubated for 60 min at 37° C. The products of the reactions were analyzed each 7 min by Rapid resolution high performance liquid chromatography using a reverse-phase column (ZORBAX Eclipse XDB-C18 2.1*50 mm […]) with a flow rate of 0.25 ml/min and a linear gradient of 1-12% CH3CN (2-25% CH3CN or 1-90% CH3CN) in 20 mM triethylammonium acetate, pH 7.5, buffer for 7 min.

For `Nc1ccn([C@H]2C[C@H](O)[C@@H](COP(=O)(O)O)O2)c(=O)n1` [dCMP], the kcat ([1]; PDTT2, second line of the table) was 0.1 s⁻¹, the kcat ([1]; PDTT2, third line of the table) was 1.3 s⁻¹ and the kcat ([2]; PDTT1, second line of the table) was 0.08 s⁻¹. For the same molecule, the kcat ([2]; PDTT1, third line of the table) was 0.5 s⁻¹.

B1: Lactobacillus leichmannii nucleoside deoxyribosyltransferase (NDT, SEQ ID NO:1) variant PDTT2, R13 Q91 G92 T93 S123 (F13R/E91Q/D92G/V93T/N123S), SEQ ID NO:10 … (protein)
chain: PKKTIYFGAGWRTDRQNKAYKEAMEALKENPTIDLENSYVPLDNQYKGIRVDEHPEYLHDKVWATATYNNDLNGIKTNDIMLGVYIPDEQGTGLGMELGYALSQGKYVLLVIPDEDYGKPISLMSWGVSDNVIKMSQLKDFNFNKPRFDFYEGAVY
notes: made in house; host or cells: E. coli BLi5 (pET24a NDT plasmid)
With B1 the Km [3] was 2 mM, the kcat/Km [3] was 668 s⁻¹ M⁻¹ and the kcat ([4]; other: PDTT2, first line, adenine acceptor, molecular mass of 108 kDa) was 0.9 s⁻¹. The Km ([4]; other: PDTT2, first line) was 6 mM, the Km ([4]; other: PDTT2, second line of the table) was 8.7 mM and the Km ([4]; other: PDTT2, third line of the table) was 2 mM.

B2: Lactobacillus leichmannii nucleoside deoxyribosyltransferase (NDT, SEQ ID NO:1) variant PDTT2, R13 Q91 G92 T93 S123 (F13R/E91Q/D92G/V93T/N123S), SEQ ID NO:10 … (protein)
chain: MPKKTIYFGAGWRTDRQNKAYKEAMEALKENPTIDLENSYVPLDNQYKGIRVDEHPEYLHDKVWATATYNNDLNGIKTNDIMLGVYIPDEQGTGLGMELGYALSQGKYVLLVIPDEDYGKPISLMSWGVSDNVIKMSQLKDFNFNKPRFDFYEGAVY
notes: as for B1
In the case of B2, the Km [5] is reported as 6.1 mM, the kcat [5] is reported as 12.6 s⁻¹ and the kcat/Km [5] is reported as 2000 M⁻¹ s⁻¹.

B3: PDTT7: PDTT3b mutant with Arginine at position 157, SEQ ID NO:42 (protein)
chain: MPKKTIYFGAGWRTDRQNKAYKEAMEALKENPTIDLENSYVPLDNQYKGIRVDEHPEYLHDKVWATATYNNDLNGIKTNDIMLGVYIPDEQGGGLGMELGYALSQGKYVLLVIPDEDYGKPISLMSWGVSDNVIKMSQLKDFNFNKPRFDFYEGAVR
modifications: amino acid sequence of PDTT7 (G92/S123/R13/G93/R157/Q91)
With B3 the Km [6] was 2.6 mM, the kcat [6] was 10 s⁻¹ and the “Catalytic activity (nmol of dATP formed/min/mg of enzyme protein)” value [7] was 17.9 nmol of dATP formed/min/mg of enzyme protein.

B4: PDTT6: PDTT4 mutant with Arginine at position 157, SEQ ID NO:43 (protein)
chain: MPKKTIYFGAGWRTDRQNKAYKEAMEALKENPTIDLENSYVPLDNQYKGIRVDEHPEYLHDKVWATATYNNDLNGIKTNDIMLGVYIPDEQGSGLGMELGYALSQGKYVLLVIPDEDYGKPISLMSWGVSDNVIKMSQLKDFNFNKPRFDFYEGAVR
modifications: amino acid sequence of PDTT6 (G92/S123/R13/S93/R157/Q91)
With B4 the Km [6] was 0.5 mM, the kcat [6] was 10 s⁻¹ and the “Catalytic activity (nmol of dATP formed/min/mg of enzyme protein)” value [7] was 18.6 nmol of dATP formed/min/mg of enzyme protein.
